In the test the target is human GITR on Jurkat/hGITR/hCD20 cells (human) (UniProt Q9Y5U5). In words: flow cytometry on Jurkat/hGITR/hCD20 cells. (In general: In flow cytometry, cells or beads pass a laser one at a time.)
human GITR on Jurkat/hGITR/hCD20 cells (human), sequence (Q9Y5U5 26-241): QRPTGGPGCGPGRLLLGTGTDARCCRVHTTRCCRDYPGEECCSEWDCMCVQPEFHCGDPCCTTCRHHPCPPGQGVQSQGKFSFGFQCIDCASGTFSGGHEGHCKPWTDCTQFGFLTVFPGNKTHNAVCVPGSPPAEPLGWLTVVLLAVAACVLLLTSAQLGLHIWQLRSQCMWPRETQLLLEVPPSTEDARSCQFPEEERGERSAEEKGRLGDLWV

REGN1932, IgG1 isotype control antibody had a Maximum MFI of 39900 MFI.

Source of the values: patent US20220153819A1.
